In US9988424 (DUKE UNIVERSITY, dated 2018):
Substitutions are numbered along the chain they refer to.

Assays:
B.62357 gp140C = biological target: T1, B.62357 gp140C; assay: ELISA, OD405 at 10 ug/ml
T1 construct: also called B.62357 140C

B.Case A2 V1/V2 tags = assay: ELISA, OD405 at 10 ug/ml
AE.97CNG2XF gp140CF = biological target: T2, AE.97CNG2XF gp140CF (HIV-1); assay: ELISA, OD405 at 10 ug/ml
T2 construct: also called E.97CNGX2F gp140CF

D.9009SA V1/V2 tags = assay: ELISA, OD405 at 10 ug/ml
A.9004SS V1/V2 tags = biological target: T3, A.9004SS V1/V2 tags; assay: ELISA, OD405 at 10 ug/ml
T3 V1V2 tags construct: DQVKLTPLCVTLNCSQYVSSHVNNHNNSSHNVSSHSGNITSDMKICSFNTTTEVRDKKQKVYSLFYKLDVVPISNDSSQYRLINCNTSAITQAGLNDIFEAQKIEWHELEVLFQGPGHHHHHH

C.CAP206 gp140CF.12 = C.CAP206 gp140CF.12 (HIV-1); assay: ELISA, OD405 at 10 ug/ml
A.Q23 V1V2 tags = A.Q23 V1V2 tags (HIV-1); assay: ELISA, OD405 at 10 ug/ml
B.HXB/BAL gp140CFI = biological target: T4, B.HXB/BAL gp140CFI (HIV-1, UniProt P04578 33-680); assay: ELISA, OD405 at 10 ug/ml
T4 construct: also called B.HxB/Ba gp140 CFI

AE.A244 gD+ gp120 N160K = biological target: T5, AE.A244 gD+ gp120 N160K (HIV-1); assay: ELISA
T5 construct: domain: gp120

AE.A244 V1V2 Tags = AE.A244 V1V2 Tags (HIV-1); assay: SPR, mAb captured on anti-Fc, V1/V2 tags injected
[1] = biological target: T6, J08 B.HXB2/BALV1V2N156QN160Q (HIV-1); assay: ELISA
T6 chain: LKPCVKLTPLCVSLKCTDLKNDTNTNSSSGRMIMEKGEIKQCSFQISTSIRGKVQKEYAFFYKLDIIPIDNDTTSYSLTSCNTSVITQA

gp70 B.HXB2/BALV1V2 = biological target: T7, gp70 B.HXB2/BALV1V2 (murine leukemia virus; HIV-1); assay: ELISA
T7 chain: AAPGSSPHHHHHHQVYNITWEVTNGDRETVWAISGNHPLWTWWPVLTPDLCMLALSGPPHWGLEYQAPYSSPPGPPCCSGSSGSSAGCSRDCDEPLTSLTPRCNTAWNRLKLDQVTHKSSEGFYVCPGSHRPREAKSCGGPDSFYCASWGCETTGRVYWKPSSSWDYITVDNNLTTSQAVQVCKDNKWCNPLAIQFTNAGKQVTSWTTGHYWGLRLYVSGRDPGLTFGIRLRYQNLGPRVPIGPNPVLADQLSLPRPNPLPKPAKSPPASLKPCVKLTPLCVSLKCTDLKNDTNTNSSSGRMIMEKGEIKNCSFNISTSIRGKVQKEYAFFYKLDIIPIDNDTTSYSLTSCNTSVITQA

gp70 B.CaseA2 V1/V2 = biological target: T8, gp70 B.CaseA2 V1/V2 (HIV-1 V1V2 on murine leukemia virus gp70); assay: ELISA
T8 construct: also called B.gp70CaseA2 V1/V2; gp70 B.CaseAV1V2
T8 chain: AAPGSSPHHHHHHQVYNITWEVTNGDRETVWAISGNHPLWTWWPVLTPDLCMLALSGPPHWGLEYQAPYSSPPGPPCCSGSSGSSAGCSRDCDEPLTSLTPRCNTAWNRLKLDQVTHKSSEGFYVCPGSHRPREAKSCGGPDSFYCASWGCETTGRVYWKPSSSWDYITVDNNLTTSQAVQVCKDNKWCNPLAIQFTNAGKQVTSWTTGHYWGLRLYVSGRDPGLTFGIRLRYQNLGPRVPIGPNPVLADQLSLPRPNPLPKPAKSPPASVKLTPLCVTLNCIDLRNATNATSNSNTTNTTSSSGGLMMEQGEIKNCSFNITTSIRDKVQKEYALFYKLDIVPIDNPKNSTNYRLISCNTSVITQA

J08 B.HXB2/BALV1V2 = biological target: T9, J08 B.HXB2/BALV1V2 (HIV-1); assay: ELISA
T9 construct: also called J08 B.HXB/BAL V1V2
T9 chain: T6 chain with Q41N, Q45N

[2] = biological target: T10, gp70 B.HXB2/BALV1V2/N156QN160Q (murine leukemia virus; HIV-1); assay: ELISA
T10 chain: T7 chain with N311Q, N315Q

D.9009SA V1V2 Tags = biological target: T11, D.9009SA V1V2 Tags; assay: ELISA, OD405
T11 Env construct: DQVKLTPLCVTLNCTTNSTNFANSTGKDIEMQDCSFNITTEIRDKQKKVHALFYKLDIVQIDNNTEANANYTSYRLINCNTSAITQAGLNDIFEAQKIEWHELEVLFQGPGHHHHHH

B.62357 140C = biological target: T12, B.62357 140C; assay: ELISA, OD405
T12 construct: also called B.62357 gp140C

B.con gp140CF = biological target: T13, B.con gp140CF; assay: ELISA, OD405
T13 construct: also called B.con.env03 gp140CF

B. 681-7 gp140C = assay: ELISA, OD405
A.9004SS V1V2 Tags = biological target: T14, A.9004SS V1V2 Tags; assay: ELISA, OD405
T14 Env construct: T3 V1V2 tags construct

B.040 gp140C = assay: ELISA, OD405

B1: PG9 reverted unmutated ancestor antibody (antibody, V domains shown)
VH: QVQLVESGGGVVQPGRSLRLSCAASGFTFSSYGMHWVRQAPGKGLEWVAVISYDGSNKYYADSVKGRFTISRDNSKNTLYLQMNSLRAEDTAVYYCAREAGGPDYRNGYNYYDFWSGYYNYYYMDVWGKGTTVTVSS
VL: QSALTQPASVSGSPGQSITISCTGTSSDVGSYNLVSWYQQHPGKAPKLMIYEVSKRPSGVSNRFSGSKSGNTASLTISGLQAEDEADYYCCSLTSTRRWVFGGGTKLTVL
notes: also called PG9 RUA; PG9_RUA
binding result (B.62357 gp140C): no binding (tested: 10 ug/ml)

B2: PG16 reverted unmutated ancestor antibody (antibody, V domains shown)
VH: B1 VH with D104I, Y105W, R106H, N107D, G108D, Y109V, N110K, W115N, S116D, N120Y
VL: B1 VL with S95D, T96R, R97S, R98H, W99R, V100I
notes: also called PG16 RUA; PG16_RUA
binding result (B.Case A2 V1/V2 tags): no binding (tested: 10 ug/ml) | binding result (AE.97CNG2XF gp140CF): no binding (tested: 10 ug/ml) | binding result (D.9009SA V1/V2 tags): no binding (tested: 10 ug/ml) | binding result (A.9004SS V1/V2 tags): no binding (tested: 10 ug/ml) | binding result (C.CAP206 gp140CF.12): no binding (tested: 10 ug/ml) | binding result (A.Q23 V1V2 tags): no binding (tested: 10 ug/ml) | binding result (B.HXB/BAL gp140CFI): no binding (tested: 10 ug/ml)

B3: CH59 (antibody, V domains shown)
VH: EVQLVESGGGLVQPGRSLRLSCAASGFTFDDGAMHWVRQAPGKGLEWVSGISWNSNIIAYADSVKGRFTISRDNAKNSLYLEMNSLRVEDTALYYCAKDSPRGELPLNYWGQGTLVTVSS
VL: SYELTQPPSVSVSPGQTARITCSGDALPKNYAYWYQQKSGQAPVLVIYEDSKRPSGIPERFSGSSSGTMATLTISGAQVEDEADYYCYSTDSSGNHRVFGGGTKLTVL
notes: also called mAb CH59
EC50 (AE.A244 gD+ gp120 N160K): 0.03 nM | Kd (AE.A244 V1V2 Tags): 1 nM

B4: 697D (antibody, V domains shown)
VH: QVQLVQSGAEVKKPGSSVKVSCKASGGNFNTYTISWVRQAPGQGLEWMGRIIPIFGIVNPAQKFPGRVTINVDKSTNTAYMELSSLRSEDTAVYYCATSGVGLHFGYFDYWGQGTQVTVSS
VL: QSVLTQPPSVSGAPGQRVTISCTGSSSNIGAHYDVHWYQQLPGTAPKLLIYGNSNRPSGVPDRFSGSKSGTSASLAITGLQAEDEADYYCQSYDSSLSGYVFGTGTKVTVL
notes: also called mAb 697D; V2 conformational mAb 697D
EC50 [1]: 66 nM | EC50 (gp70 B.HXB2/BALV1V2): 0.64 nM | EC50 (gp70 B.CaseA2 V1/V2): 0.05 nM | EC50 (J08 B.HXB2/BALV1V2): 0.12 nM | EC50 [2]: > 667 nM

B5: PG16 (antibody, V domains shown)
VH: QEQLVESGGGVVQPGGSLRLSCLASGFTFHKYGMHWVRQAPGKGLEWVALISDDGMRKYHSDSMWGRVTISRDNSKNTLYLQFSSLKVEDTAMFFCAREAGGPIWHDDVKYYDFNDGYYNYHYMDVWGKGTTVTVSS
VL: QSALTQPASVSGSPGQTITISCNGTSSDVGGFDSVSWYQQSPGKAPKVMVFDVSHRPSGISNRFSGSKSGNTASLTISGLHIEDEGDYFCSSLTDRSHRIFGGGTKVTVL
notes: also called mAb PG16; bnAb PG16
binding result (D.9009SA V1V2 Tags): no binding (tested: 10 ug/ml) | binding result (B.62357 140C): no binding (tested: 10 ug/ml) | binding result (B.con gp140CF): no binding (tested: 10 ug/ml) | binding result (B. 681-7 gp140C): no binding (tested: 10 ug/ml) | binding result (A.9004SS V1V2 Tags): no binding (tested: 10 ug/ml) | binding result (B.040 gp140C): no binding (tested: 10 ug/ml)
